Test [1] has as its target T1, His–Borg5 (recombinant mouse Borg5, Cdc42EP1) (mouse, UniProt Q91W92 1-409).
T1 construct: Borg5 (Cdc42EP1), mouse cDNA (Borg5–Myc cDNA of Vong et al., 2010), PCR-cloned into pet28a+; All recombinant Borg5 constructs were based on mouse Borg5–Myc cDNA; Runs at 50 kDa on the His blot; also called His-tagged Borg5; source: E. coli BL21(DE3), purified (boiled, 8 M urea, Ni-NTA agarose; also purified under native conditions)
T1 sequence (looked up): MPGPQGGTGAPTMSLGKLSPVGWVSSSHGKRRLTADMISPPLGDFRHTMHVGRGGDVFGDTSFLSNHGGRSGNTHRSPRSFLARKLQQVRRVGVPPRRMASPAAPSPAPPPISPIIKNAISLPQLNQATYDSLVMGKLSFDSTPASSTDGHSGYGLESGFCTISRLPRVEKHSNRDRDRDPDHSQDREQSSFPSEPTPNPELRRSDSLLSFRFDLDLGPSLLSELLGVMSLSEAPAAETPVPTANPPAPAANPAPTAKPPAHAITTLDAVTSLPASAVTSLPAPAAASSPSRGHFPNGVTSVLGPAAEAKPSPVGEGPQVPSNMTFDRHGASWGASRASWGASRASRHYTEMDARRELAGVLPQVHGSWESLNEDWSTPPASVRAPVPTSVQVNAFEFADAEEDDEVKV
Briefly: pull-down; three-way assay: His–Borg5 pre-incubated with septin 9-6-7-2 complexes, then bound to GST–MyoIIA-Rod immobilised on glutathione resin; septin buffer (300 mM KCl), 4°C; Coomassie gel and His blot; two experiments. Conditions: both partners purified.

Test [2] addresses T1, His–Borg5 (recombinant mouse Borg5, …). Kind of test: pull-down; three-way assay: His–MyoIIA-Rod pre-incubated with His–Borg5, then bound to His–SEPT2/6/7/9–Strep immobilised on Strep-Tactin Sepharose; septin buffer (300 mM KCl), 4°C; biotin elution; His blot; four experiments. Conditions: both partners purified.

Data on two molecules can be found in paper PMC11698036, “Borg5 restricts contractility and motility in epithelial MDCK cells” (Journal of Cell Science, 2024).

B1: septin 9–septin 6–septin 7–septin 2 complex (His–SEPT2/6/7/9–Strep) (complex)
chain 1: MSKQQPTQFINPETPGYVGFANLPNQVHRKSVKKGFEFTLMVVGESGLGKSTLINSLFLTDLYPERIIPGAAEKIERTVQIEASTVEIEERGVKLRLTVVDTPGYGDAINCRDCFKTIISYIDEQFERYLHDESGLNRRHIIDNRVHCCFYFISPFGHGLKPLDVAFMKAIHNKVNIVPVIAKADTLTLKERERLKKRILDEIEEHSIKIYHLPDAESDEDEDFKEQTRLLKASIPFSVVGSNQLIEAKGKKVRGRLYPWGVVEVENPEHNDFLKLRTMLITHMQDLQEVTQDLHYENFRSERLKRGGRKVENEDMNKDQILLEKEAELRRMQEMIARMQAQMQMQMQGGDSDSGALGQHV
chain 2: MAATDIARQVGEGCRTVPLAGHVGFDSLPDQLVNKSVSQGFCFNILCVGETGLGKSTLMDTLFNTKFEGEPATHTQPGVQLQSNTYDLQESNVRLKLTIVSTVGFGDQINKEDSYKPIVEFIDAQFEAYLQEELKIRRVLHTYHDSRIHVCLYFIAPTGHSLKSLDLVTMKKLDSKVNIIPIIAKADAISKSELTKFKIKITSELVSNGVQIYQFPTDDESVAEINGTMNAHLPFAVIGSTEELKIGNKMMRARQYPWGTVQVENEAHCDFVKLREMLIRVNMEDLREQTHTRHYELYRRCKLEEMGFKDTDPDSKPFSLQETYEAKRNEFLGELQKKEEEMRQMFVQRVKEKEAELKEAEKELHEKFDRLKKLHQDEKKKLEDKKKSLDDEVNAFKQRKTAAELLQSQGSQAGGSQTLKRDKEKKNNPWLCTE
chain 3: MSVSARSAAAEERSVNSSTMVAQQKNLEGYVGFANLPNQVYRKSVKRGFEFTLMVVGESGLGKSTLINSLFLTDLYSPEYPGPSHRIKKTVQVEQSKVLIKEGGVQLLLTIVDTPGFGDAVDNSNCWQPVIDYIDSKFEDYLNAESRVNRRQMPDNRVQCCLYFIAPSGHGLKPLDIEFMKRLHEKVNIIPLIAKADTLTPEECQQFKKQIMKEIQEHKIKIYEFPETDDEEENKLVKKIKDRLPLAVVGSNTIIEVNGKRVRGRQYPWGVAEVENGEHCDFTILRNMLIRTHMQDLKDVTNNVHYENYRSRKLAAVTYNGVDNNKNKGQLTKSPLAQMEEERREHVAKMKKMEMEMEQVFEMKVKEKVQKLKDSEAELQRRHEQMKKNLEAQHKELEEKRRQFEDEKANWEAQQRILEQQNSSRTLEKNKKKGKIF
chain 4: MKKSYSGGTRTSSGRLRRLGDSSGPALKRSFEVEEVETPNSTPPRRVQTPLLRATVASSTQKFQDLGVKNSEPSARHVDSLSQRSPKASLRRVELSGPKAAEPVSRRTELSIDISSKQVENAGAIGPSRFGLKRAEVLGHKTPEPAPRRTEITIVKPQESAHRRMEPPASKVPEVPTAPATDAAPKRVEIQMPKPAEAPTAPSPAQTLENSEPAPVSQLQSRLEPKPQPPVAEATPRSQEATEAAPSCVGDMADTPRDAGLKQAPASRNEKAPVDFGYVGIDSILEQMRRKAMKQGFEFNIMVVGQSGLGKSTLINTLFKSKISRKSVQPTSEERIPKTIEIKSITHDIEEKGVRMKLTVIDTPGFGDHINNENCWQPIMKFINDQYEKYLQEEVNINRKKRIPDTRVHCCLYFIPATGHSLRPLDIEFMKRLSKVVNIVPVIAKADTLTLEERVHFKQRITADLLSNGIDVYPQKEFDEDSEDRLVNEKFREMIPFAVVGSDHEYQVNGKRILGRKTKWGTIEVENTTHCEFAYLRDLLIRTHMQNIKDITSSIHFEAYRVKRLNEGSSAMANGMEEKEPEAPEM
notes: Prepared according to Castro-Linares et al. (2022); Tag ends are read from the plasmid names; As I recall, these Addgene plasmids hold mouse SEPT2 and human SEPT6, SEPT7 and SEPT9_i1; also called septin 9-6-7-2; SEPT complexes; source: E. coli BL21(DE3), co-expressed, purified (nickel agarose, then Strep-Tactin Sepharose); not shown: 6xHis, N-terminal, kept; Strep tag, C-terminal, kept; copies: + …
For the molecule B1, in test [1], the “His–Borg5 binding to Myo–GST with SEPT complexes, relative to that without septins (experiment 1)” value is 0.6 fraction of that observed without septins present and the “His–Borg5 binding to Myo–GST with SEPT complexes, relative to that without septins (experiment 2)” value was 0.3 fraction of that observed without septins present.

B2: His-tagged rod domain of myosin IIA (His–MyoIIA-Rod) (domain or fragment, UniProt P35579 1339-1960, looked up)
chain: NSFREQLEEEEEAKHNLEKQIATLHAQVADMKKKMEDSVGCLETAEEVKRKLQKDLEGLSQRHEEKVAAYDKLEKTKTRLQQELDDLLVDLDHQRQSACNLEKKQKKFDQLLAEEKTISAKYAEERDRAEAEAREKETKALSLARALEEAMEQKAELERLNKQFRTEMEDLMSSKDDVGKSVHELEKSKRALEQQVEEMKTQLEELEDELQATEDAKLRLEVNLQAMKAQFERDLQGRDEQSEEKKKQLVRQVREMEAELEDERKQRSMAVAARKKLEMDLKDLEAHIDSANKNRDEAIKQLRKLQAQMKDCMRELDDTRASREEILAQAKENEKKLKSMEAEMIQLQEELAAAERAKRQAQQERDELADEIANSSGKGALALEEKRRLEARIAQLEEELEEEQGNTELINDRLKKANLQIDQINTDLNLERSHAQKNENARQQLERQNKELKVKLQEMEGTVKSKYKASITALEAKIAQLEEQLDNETKERQAACKQVRRTEKKLKDVLLQVDDERRNAEQYKDQADKASTRLKQLKRQLEEAEEEAQRANASRRKLQRELEDATETADAMNREVSSLKNKLRRGDLPFVVPRRMARKGAGDGSDEEVDGKADGAEAKPAE
notes: Myosin IIA heavy chain (MYH9), rod domain, amino acids 1339–1960, in pet28a; Construct provided by Anne Bresnick; also called His-MyoIIRod; His-MyoRod; source: E. coli BL21(DE3), purified (Mg-ATP step, nickel agarose)
Regarding B2, the “Borg5–SEPT binding with His-MyoIIRod, relative to that without MyoIIRod” value in test [2] is 0.57 fraction of that without MyoIIRod.
